Source: patent publication US20030013650A1, “VR-OAC, an osomotically activated channel protein, nucleic acids encoding it, and uses thereof” (The Rockefeller University, priority 2000, published 2003)

Experiments:
VR-OAC = biological target: T1, VR-OAC (Rattus norvegicus, UniProt Q9ERZ8, M680K); test: Ca2+ imaging (fluo-4) of CHO cells transfected with VR-OAC or variants; type: cell-based, rat and chicken; conditions: tissue culture cells
T1 construct: The complete cDNAs of rat VR-OAC, chicken VR-OAC, and rat VR1 were subcloned into the eukaryotic expression vector pcDNA3.1; expressed in transfected cells; host or cells: CHO-K1 (stably or transiently transfected, pcDNA3.1)
Description: To confirm that VR-OAC constitutes an ion channel and to determine the stimulus that gates it, we expressed the rat and chicken proteins in stably transfected Chinese hamster ovary (CHO) cells. Untransfected CHO cells and a line stably transfected with a VR1-expressing plasmid served as controls. We loaded VR-OAC-expressing cells with the Ca^2+ indicator fluo-4 AM and used conventional and confocal icroscopy to monitor changes in fluorescence, which reflected alterations in the ntracellular Ca^2+ concentration.
The complete cDNAs of rat VR-OAC, chicken VR-OAC, and rat VR1 were subcloned into the eukaryotic expression vector pcDNA3.1 (Invitrogen, Carlsbad, Calif.). CHO-K1 cells (ATCC, Manassas, Va.) were transfected with these vectors and selected with G418 (Life Technology, Gaithersburg, Md.). Stable clones that expressed the mRNAs were identified by Northern blot analysis and, for VR1, by response to ligand.
For Ca2+ imaging, cells were loaded for 30 min at room temperature in […] fluo-4 AM ester (Molecular Probes, Eugene, Oreg.) in isoosmotic Hille's saline solution (130 mM Na^+, 2.5 mM K^+, 2 mM Ca2+, 1 mM Mg2+, 138.5 mM Cl−, 20 mM D-glucose, and 10 mM HEPES at pH 7.3; Babcock et al., 1997) containing 2 mM probenecid. The cells were then washed and incubated for 15 min at 30° C. to promote deacetylation of internalized fluo-4 AM ester.
Confocal analysis was performed with an MRC-1024ES system (Bio-Rad, Hercules, Calif.) mounted on an inverted microscope (Zeiss Axiovert 135TV, Carl Zeiss, Jena, Germany). Confocal image series were collected using Lasersharp software (BioRad) running on a Poweredge 2300 computer (Dell Computer, Round Rock, Tex.). Images were also recorded with a cooled digital camera (Micromax, Princeton Instruments Inc., Princeton, N.J.) atop a Zeiss Axioplan microscope. These images were analyzed using IPLab software (Scanalytics Inc., Fairfax, Va.). Analysis of single-frame or single-cell integrated signal density was performed on Macintosh computers running NIH Image software (version 1.61; O'Neill et al., 1989).
Solutions with different osmotic strengths were created by adding water or mannitol to Hille's saline solution. Unless otherwise noted, the Ca2+ concentration of all solutions was held constant at 2 mM. The resultant osmolalities were verified with a vapor-pressure osmometer (Vapro 5520, Wescor Inc., Logan, Utah). The test solutions included a graded series of hypotonic solutions (with 220 mmol kg-1 the lowest osmolality), a hypertonic solution (330 mmol kg-1), isotonic solutions at 295 mmol kg-1 with graded concentrations of Na+ (with 50 mM the lowest concentration), and hypotonic solutions containing 100 μM, 250 μM, and 500 μM GdCl3. Ligands used for stimulation were resiniferatoxin (Sigma Chemicals, St. Louis, Mo.) at 0.2 μM and 5 μM and anandamide (Cayman Chemical, Ann Arbor, Mich.) at 5 μM and 25 μM. To test whether VR-OAC is directly gated by increases in temperature, we exposed dishes containing fluo-4-loaded cells to temperatures ranging from room temperature to 30° C., 37° C., 40° C., 45° C., 50° C., and 55° C. Images were acquired during the thermal stimulus series at intervals of 60 s for up to 10 min after the start of heating. A series of calibration experiments confirmed that this interval ensured proper thermal equilibration. A similar procedure was used to test the response to hypotonicity at various temperatures.

C. elegans mutant osm-9 = test: Transgenic rescue of C. elegans mutant osm-9 (osmotic avoidance, nose touch, odorant avoidance); type: in vivo, Caenorhabditis elegans; conditions: expressed in ASH neurons (sra6 promotor) of osm-9 worms
Description: The coding region of the rat VR-OAC cDNA was cloned into the C. elegans expression vector pPD49.26 that contained the sra6 promotor. This promotor directs expression in the ASH and ASI neurons. Purified DNA was injected into the gonad of hermaphroditic worms, strain N2, together with the marker gene elt-2/green fluorescent protein (GFP) which directs expression of GFP in C. elegans intestinal cells. Transgenic offspring could be identified by GFP fluorescence, and VR-OAC transgenic lines of worms were generated. Likewise, several transgenic lines of worms were established and maintained on an osm-9 (ky-10 allele) genetic background. In these worms, an osmotic avoidance in response to hyperosmotic stimuli was clearly present, as was sensitivity to nose touch (FIGS. 15A and 15B). The avoidance reactions were assayed on single animals as previously described^34. Odorant avoidance in response to octanone was not present. […] In order to confirm that the observed rescue is mediated by the ASH neuron, both ASH neurons were laser ablated in osm-9/VR-OAC transgenic (tg) worms. This procedure completely abolished rescue (FIGS. 15A and 15B). In order to visualize subcellular localization of the VR-OACtg in the ASH neuron, GFP was tagged to the C-terminus of VR-OAC. The tagged protein could be localized to the cilia of the ASH neuron in the worm nose where fluorescence was stronger than in any other part of this neuron. Rescue was not impaired in VR-OAC/GFPtg osm-9 worms (FIGS. 15A and 15B).
In order to understand better the specificity of the observed rescue, VR-OACtg worms were crossed to C. elegans mutants which genetically define the alternate mechanosensory pathway. VR-OACtg worms of the following mutant lines were generated: ocr-2, odr-3, glr-1, osm-10 and double-mutants of the former with osm-9. These lines were tested for osmotic avoidance, nose touch and odorant avoidance. […] In another control experiment addressing the specificity of the observed rescue, we expressed rat VR1 under the control of the sra6 promotor in ASH neurons of wild type and osm-9 worms. No rescue was observed. However, in osm-9 as well as in wild type worms tg for VR1 there was a strong avoidance response to vanilloids which was absent in non-tg worms.
Next, we wanted to use the transgenic rescue of osm-9 by VR-OAC as an in-vivo model in order to better understand structure-function relationships of VR-OAC. Gross deletions were constructed lacking either the N-terminal intracellular domain (aminoacid [AA] 1-410 of VR-OAC), the C-terminal intracellular domain (AA 741-781 of VR-OAC) or both. Three lines of worms were established for each of the gross deletions. The line with the most pronounced rescue as an indication of highest expression level of tg was investigated more in depth. […] The N-terminus and the C-terminus thus appear dispensable for the response to osmotic and mechanical stimuli, and, most likely, for proper intracellular transport in the ASH neuron. In addition to these gross deletions, we wanted to learn more about the structure-function relationship of strategically positioned single amino acid exchanges in the pore-loop domain of VR-OAC. As for the gross deletions, three lines of worms were generated for each point mutation. […]

T1 sequence (Q9ERZ8 whole entry M680K): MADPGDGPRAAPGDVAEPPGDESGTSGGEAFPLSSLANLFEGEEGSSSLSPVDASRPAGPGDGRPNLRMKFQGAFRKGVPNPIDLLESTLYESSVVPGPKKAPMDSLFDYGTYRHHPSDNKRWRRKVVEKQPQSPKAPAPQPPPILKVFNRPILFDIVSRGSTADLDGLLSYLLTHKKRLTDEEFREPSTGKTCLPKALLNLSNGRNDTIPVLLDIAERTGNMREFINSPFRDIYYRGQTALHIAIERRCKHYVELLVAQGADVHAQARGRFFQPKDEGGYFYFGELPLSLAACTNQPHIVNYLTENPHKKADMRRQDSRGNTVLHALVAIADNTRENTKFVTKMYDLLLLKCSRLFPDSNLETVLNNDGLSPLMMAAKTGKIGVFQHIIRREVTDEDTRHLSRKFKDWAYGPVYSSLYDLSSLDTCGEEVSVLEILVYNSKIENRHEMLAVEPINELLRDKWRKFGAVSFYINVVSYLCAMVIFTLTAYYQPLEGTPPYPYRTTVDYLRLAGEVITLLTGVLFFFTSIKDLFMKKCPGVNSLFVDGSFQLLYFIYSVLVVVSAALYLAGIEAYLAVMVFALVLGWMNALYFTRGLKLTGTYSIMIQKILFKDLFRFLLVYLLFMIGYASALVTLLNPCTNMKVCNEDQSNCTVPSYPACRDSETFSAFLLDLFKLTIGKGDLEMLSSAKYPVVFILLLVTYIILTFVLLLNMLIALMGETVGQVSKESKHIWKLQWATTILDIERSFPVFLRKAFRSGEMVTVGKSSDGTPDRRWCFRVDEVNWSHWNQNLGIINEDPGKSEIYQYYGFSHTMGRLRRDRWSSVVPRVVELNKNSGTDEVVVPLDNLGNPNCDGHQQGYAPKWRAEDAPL

M680K: VR-OAC mutation of Lysine for Methionine at amino acid 680
function in tissue culture cells (VR-OAC): totally lacked function | rescue of lack of osmotic avoidance and lack of response to nose touch (C. elegans mutant osm-9): strikingly reduce rescue
